# Source: the supplement of paper PMC9170038
# Test system: MS2 coat protein
# Test: apparent KD of MS2 coat protein; higher = weaker reporter binding
# Conditions: Eterna round: R107
# Procedure: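 RNA-MaP round R107: designed RNA switches with theophylline, tryptophan, arginine or FMN aptamers are transcribed on-chip within common flanks. They are titrated with SNAP-549-labelled MS2 coat protein in RNA-MaP buffer (100 mM Tris pH 7.5, 80 mM KCl, 4 mM MgCl2), without ligand or with the indicated ligand. Median apparent KD per design.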
# [1] = input ligand: theophylline 20 uM
# [2] = input ligand: theophylline 2 mM
# [3] = input ligand: tryptophan 2.4 mM
sequence,measurement,setting,value
GCAUCCUAGUCGGCCGCCACUGGUACGAACACCUUCACCCGUGUGCACAUGAGGAUCACCCAUGUCAGGACCGGGACUAGGAUGC [SSTryp B #22],apparent KD of MS2 coat protein,input ligand: arginine 13.2 mM,0.00948 µM
same,apparent KD of MS2 coat protein,[1],0.0109 µM
same,apparent KD of MS2 coat protein,[2],0.00854 µM
AAACGCCACGGAAGGAGCGACAUGAGGAUCACCCAUGUAGAUUUGGCGGAUGCACCCUCCUGUCAGGUAGGUCGCCGUGCGCUAA [XArg-B24],apparent KD of MS2 coat protein,input ligand: arginine 13.2 mM,0.0518 µM
same,apparent KD of MS2 coat protein,input ligand: none,0.061 µM
same,apparent KD of MS2 coat protein,[1],0.0902 µM
same,apparent KD of MS2 coat protein,[2],0.0999 µM
same,apparent KD of MS2 coat protein,[3],0.1 µM
GUGCGGUUUGAUGAUACCAGAUGUGGUGGGAACAUGAGGAUCACCCAUGUUGUGAAACAGGUCCCUUGGCAGCAUGAGUGAGCUU [TheoB-ms2@32-1],apparent KD of MS2 coat protein,input ligand: arginine 13.2 mM,0.0973 µM
same,apparent KD of MS2 coat protein,input ligand: none,0.103 µM
same,apparent KD of MS2 coat protein,[1],0.255 µM
same,apparent KD of MS2 coat protein,[2],0.29 µM
same,apparent KD of MS2 coat protein,[3],0.0555 µM
UGUAUGUGAUCUGAUACCAGCGAUGAUAACCUGAGGAUCACCCUGGUAAGGCGAAAGCCUCGCCCUUGGCAGCAGAUCGCAUACU,apparent KD of MS2 coat protein,input ligand: arginine 13.2 mM,0.407 µM
same,apparent KD of MS2 coat protein,input ligand: none,0.583 µM
same,apparent KD of MS2 coat protein,[1],0.273 µM
same,apparent KD of MS2 coat protein,[2],0.024 µM
same,apparent KD of MS2 coat protein,[3],0.8 µM
ACUCGAGGUGGAAGGAGCGGGAGACAUGAGCAUCACAUGAGGAUCACCCAUGUAGGAUCAUCCCAGGUAGGUCGCCAUGUCGAAA [avtamullin],apparent KD of MS2 coat protein,input ligand: arginine 13.2 mM,0.105 µM
same,apparent KD of MS2 coat protein,input ligand: none,0.217 µM
same,apparent KD of MS2 coat protein,[1],0.147 µM
same,apparent KD of MS2 coat protein,[2],0.276 µM
same,apparent KD of MS2 coat protein,[3],0.165 µM
AACAACAAGGGAAGGAGCGCGAAUAAUAGACAUGAGGAUCACCCAUGUAUCAUGGGAUUAACGCAGGUAGGUCGCCCACAAACAA [#07 Exclusion - Arginine B],apparent KD of MS2 coat protein,input ligand: arginine 13.2 mM,0.0604 µM
same,apparent KD of MS2 coat protein,input ligand: none,0.127 µM
same,apparent KD of MS2 coat protein,[1],0.155 µM
same,apparent KD of MS2 coat protein,[2],0.152 µM
same,apparent KD of MS2 coat protein,[3],0.0717 µM
GCACCAGGUACGGAUACCAGCUAUAGGCACAGAGGAGGACAUGAGGAUCACCCAUGUGAUGGCCCUUGGCAGCUGUACCUGGUGC [EThB NP+V+V2 #3],apparent KD of MS2 coat protein,input ligand: arginine 13.2 mM,0.00889 µM
same,apparent KD of MS2 coat protein,input ligand: none,0.0129 µM
same,apparent KD of MS2 coat protein,[1],0.0232 µM
same,apparent KD of MS2 coat protein,[2],0.171 µM
same,apparent KD of MS2 coat protein,[3],0.0106 µM
AUCGUACCUGAAGAUACCAGCAUGUGAUCAUAACAUGAGGAUCACCCAUGUAAUCAGUGAUGCCCUUGGCAGCUUGAUCGGUACA [Same State - Theophylline B (Freestyle 12)],apparent KD of MS2 coat protein,input ligand: arginine 13.2 mM,0.0396 µM
same,apparent KD of MS2 coat protein,[1],0.0413 µM
same,apparent KD of MS2 coat protein,[3],0.0302 µM
UGUAACAUGAGGAUCACCCAUGUGAGUGAUACCAGAUUAGUAUUAGUCCCUUGGCAGCACAUUGGGCGAGUGUAUAGUCUAUGCG [Same State - Theophylline A (Freestyle 12)],apparent KD of MS2 coat protein,input ligand: arginine 13.2 mM,0.106 µM
same,apparent KD of MS2 coat protein,[1],0.197 µM
same,apparent KD of MS2 coat protein,[3],0.135 µM
CGAAAGCACAUGGGUUGCUUUCGACUGGAAGGAGCGAGCGAAAGCUCAGGUAGGUCGCCAGAAACAUGAGGAUCACCCAUGUAAU [(A)''-(M)'-(A)'(Arg1)-(Arg2)-(M1)-(M2)_Design10],apparent KD of MS2 coat protein,input ligand: arginine 13.2 mM,0.0216 µM
same,apparent KD of MS2 coat protein,input ligand: none,0.0183 µM
same,apparent KD of MS2 coat protein,[1],0.0274 µM
same,apparent KD of MS2 coat protein,[2],0.0213 µM
same,apparent KD of MS2 coat protein,[3],0.0224 µM
GCUAGGUCUACGGCCGCCACUAGACGUGGGUAAGACAUGAGGAUCACCCAUGUACUACGGGCGAUUAGGACCGGGUAGACCUAGC [SSTB NP+V+V2 #16 Same Structure],apparent KD of MS2 coat protein,input ligand: arginine 13.2 mM,0.0505 µM
same,apparent KD of MS2 coat protein,input ligand: none,0.309 µM
same,apparent KD of MS2 coat protein,[1],0.527 µM
same,apparent KD of MS2 coat protein,[2],0.646 µM
same,apparent KD of MS2 coat protein,[3],0.0669 µM
UCGGGCAUGGCGGCCGCCACUGGUUGGCGUGCGGAUGAGGGAACAUGAGGAUCACCCAUGUUGGUUAGGACCGGGCUUGCGUCGU [knkmullin],apparent KD of MS2 coat protein,input ligand: arginine 13.2 mM,0.0118 µM
same,apparent KD of MS2 coat protein,input ligand: none,0.0165 µM
same,apparent KD of MS2 coat protein,[1],0.018 µM
same,apparent KD of MS2 coat protein,[2],0.0152 µM
same,apparent KD of MS2 coat protein,[3],0.0134 µM
CAGCCUGAUUGGUAAAUCCCUCAUCGUGAUACCAGUCGAGUGAUCGACCCUUGGCAGCACAUGAGGAUCACCCAUGUGCGCGUAA [Raisener],apparent KD of MS2 coat protein,input ligand: arginine 13.2 mM,0.022 µM
same,apparent KD of MS2 coat protein,[1],0.0349 µM
same,apparent KD of MS2 coat protein,[3],0.024 µM
CUCCGAGGCUAUACUAUCCGCCUCUGUGAUACCAGAAUACCUAUAUUCCCUUGGCAGCAUCACAUGAGGAUCACCCAUGUGCCAU [SSTheo A #13],apparent KD of MS2 coat protein,input ligand: arginine 13.2 mM,0.0145 µM
same,apparent KD of MS2 coat protein,[1],0.0168 µM
same,apparent KD of MS2 coat protein,[3],0.0139 µM
AUCGCACCUGGUGAUACCAGCGUUUGCUCGUGACAUGAGGAUCACCCAUGUGGCCAGUGAUGCCCUUGGCAGCAUGGUCGGUGCA [Same State - Theophylline B (Freestyle 26)],apparent KD of MS2 coat protein,input ligand: arginine 13.2 mM,0.0617 µM
same,apparent KD of MS2 coat protein,[1],0.376 µM
same,apparent KD of MS2 coat protein,[3],0.296 µM
